{"source": "patent US20130244255A1", "about": "“ANTIBODIES DIRECTED TO GPNMB AND USES THEREOF” (priority 2006, published 2013)", "key": {"GPNMB [1]": {"molecular_target": "T1, GPNMB (Homo sapiens, UniProt Q14956)", "T1 construct": "we cloned the human CG56972 extracellular domain (ECD; aa 23-480); made in house; host or cells: HEK 293 cells", "T1 sequence (Q14956 23-492)": "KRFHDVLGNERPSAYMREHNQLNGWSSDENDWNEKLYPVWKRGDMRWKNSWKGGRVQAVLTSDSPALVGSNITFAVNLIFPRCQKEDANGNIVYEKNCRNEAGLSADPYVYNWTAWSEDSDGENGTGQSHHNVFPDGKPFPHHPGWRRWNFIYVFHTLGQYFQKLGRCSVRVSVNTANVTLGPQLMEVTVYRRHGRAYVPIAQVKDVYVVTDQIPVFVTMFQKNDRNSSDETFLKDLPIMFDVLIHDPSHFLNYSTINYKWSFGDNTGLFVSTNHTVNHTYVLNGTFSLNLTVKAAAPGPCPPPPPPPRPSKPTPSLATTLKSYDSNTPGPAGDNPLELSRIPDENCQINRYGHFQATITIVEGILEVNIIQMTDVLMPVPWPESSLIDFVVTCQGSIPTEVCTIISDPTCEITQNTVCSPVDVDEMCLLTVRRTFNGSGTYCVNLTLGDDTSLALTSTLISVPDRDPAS", "experiment": "ELISA of hybridoma supernatants for binding to GPNMB", "method": "After 14 days of culture, hybridoma supernatants were screened for GPNMB specific monoclonal antibodies. In the Primary screen, the ELISA plates (Fisher, Cat. No. 12-565-136) were coated with 50 μL/well of GPNMB (1 μg/mL) in Coating Buffer (0.1 M Carbonate Buffer, pH 9.6, NaHCO3 8.4 g/L), then incubated at 4° C. overnight. After incubation, the plates were washed with Washing Buffer (0.05% Tween 20 in PBS) three times. 200 μL/well Blocking Buffer (0.5% BSA, 0.1% Tween 20, 0.01% Thimerosal in 1×PBS) were added and the plates were incubated at room temperature for 1 h. After incubation, the plates were washed with Washing Buffer three times. Aliquots (50 μL/well) of hybridoma supernatants and positive and negative controls were added, and the plates were incubated at room temperature for 2 h. The positive control used throughout was serum from the relevant GPNMB immunized XenoMouse® mouse and the negative control was serum from the KLH-immunized relevant strain of XenoMouse® mouse. After incubation, the plates were washed three times with Washing Buffer. 100 μL/well of detection antibody goat anti-huIgGfc-HRP (Caltag, Cat. No. H10507, using concentration was 1:2000 dilution) was added and the plates were incubated at room temperature for 1 hour. After incubation, the plates were washed three times with Washing Buffer. 100 μl/well of TMB (BioFX Lab. Cat. No. TMSK-0100-01) was added, and the plates were allowed to develop for about 10 minutes (until negative control wells barely started to show color). 50 μl/well stop solution (TMB Stop Solution (BioFX Lab. Cat. No. STPR-0100-01) was then added and the plates were read on an ELISA plate reader at a wavelength of 450 nm.\nHybridoma supernatants were screened for binding to GPNMB by ELISA as described above in Example 2."}, "GPNMB [2]": {"molecular_target": "T1, GPNMB", "experiment": "Binning of antibodies (Luminex competitive binding)", "method": "Certain antibodies, described herein were binned in accordance with the protocol described in U.S. Patent Application Publication No. 20030157730. M×hIgG conjugated beads are prepared for coupling to primary antibody. The volume of supernatant needed is calculated using the following formula: (n+10)×50 μL (where n=total number of samples on plate). Where the concentration is known, 0.5 μg/mL is used. Bead stock is gently vortexed, then diluted in supernatant to a concentration of 2500 of each bead per well or 0.5×10^5/mL and incubated on a shaker in the dark at RT overnight, or 2 hours if at a known concentration of 0.5 μg/mL. Following aspiration, 50 μL of each bead is added to each well of filter plate, then washed once by adding 100 μL/well wash buffer and aspirating. Antigen and controls are added to filter plate 50 μL/well then covered and allowed to incubate in the dark for 1 hour on shaker. Following a wash step, a secondary unknown antibody is added at 50 μL/well using the same dilution (or concentration if known) as is used for the primary antibody. The plates are then incubated in the dark for 2 hours at RT on shaker followed by a wash step. Next, 50 μL/well biotinylated m×hIgG diluted 1:500 is added and allowed to incubate in the dark for 1 hour on shaker at RT. Following a wash step, 50 μL/well Streptavidin-PE is added at 1:1000 and allowed to incubate in the dark for 15 minutes on shaker at RT. Following a wash step, each well is resuspended in 80 μL blocking buffer and read using Luminex. […] Competitive binding by antibodies from […] supports antibody specificity for similar or adjacent epitopes. Non competitive binding supports antibody specificity for unique epitopes.\nThree bins were created to further test the binding of six anti-GPNMB antibodies. Bin 1 included GPNMB antibodies (1.2.1), (1.10.1), and (2.22.1). Bin 2 included GPNMB antibodies (2.3.1) and (1.15.1), and Bin 3 included GPNMB antibody (2.10.1). The results of the binning assays are provided below in Tables 8 and 9."}}, "data": [{"substance": "CR011: fully human monoclonal antibody that specifically binds to GPNMB; VH SEQ ID NO: 20, VL SEQ ID NO: 29", "values": [{"measurement": "Avg OD", "setting": "GPNMB [1]; antibody at 12.3 ng/mL", "value": 0.168}, {"measurement": "Avg OD", "setting": "GPNMB [1]; antibody at 37 ng/mL", "value": 0.381}, {"measurement": "Avg OD", "setting": "GPNMB [1]; antibody at 111 ng/mL", "value": 0.701}, {"measurement": "Avg OD", "setting": "GPNMB [1]; antibody at 333 ng/mL", "value": 0.902}, {"measurement": "Avg OD", "setting": "GPNMB [1]; antibody at 1 μg/mL", "value": 1.051}, {"measurement": "Avg OD", "setting": "GPNMB [1]; antibody at 3 μg/mL", "value": 1.159}, {"measurement": "bin", "setting": "GPNMB [2]; Table 8", "value": "VIII"}, {"measurement": "binning signal against antibody 1.1", "setting": "GPNMB [2]; Table 8", "value": 91}, {"measurement": "binning signal against antibody 1.11", "setting": "GPNMB [2]; Table 8", "value": 10}, {"measurement": "binning signal against antibody 1.12", "setting": "GPNMB [2]; Table 8", "value": 15}, {"measurement": "binning signal against antibody 1.13", "setting": "GPNMB [2]; Table 8", "value": 13}, {"measurement": "binning signal against antibody 1.15", "setting": "GPNMB [2]; Table 8", "value": 0}, {"measurement": "binning signal against antibody 1.2", "setting": "GPNMB [2]; Table 8", "value": 79}, {"measurement": "binning signal against antibody 1.3", "setting": "GPNMB [2]; Table 8", "value": 71}, {"measurement": "binning signal against antibody 1.7", "setting": "GPNMB [2]; Table 8", "value": 21}, {"measurement": "binning signal against antibody 1.8", "setting": "GPNMB [2]; Table 8", "value": 8}, {"measurement": "binning signal against antibody 1.9", "setting": "GPNMB [2]; Table 8", "value": 12}, {"measurement": "binning signal against antibody xV5", "setting": "GPNMB [2]; Table 8", "value": 89}, {"measurement": "binning signal against column antibody 1.5", "setting": "GPNMB [2]; Table 8", "value": 15}, {"measurement": "binning signal against antibody 1.1", "setting": "GPNMB [2]; Table 9", "value": 127}, {"measurement": "binning signal against antibody 1.11", "setting": "GPNMB [2]; Table 9", "value": 19}, {"measurement": "binning signal against antibody 1.12", "setting": "GPNMB [2]; Table 9", "value": 21}, {"measurement": "binning signal against antibody 1.13", "setting": "GPNMB [2]; Table 9", "value": 5}, {"measurement": "binning signal against antibody 1.15", "setting": "GPNMB [2]; Table 9", "value": 0}, {"measurement": "binning signal against antibody 1.2", "setting": "GPNMB [2]; Table 9", "value": 90}, {"measurement": "binning signal against antibody 1.3", "setting": "GPNMB [2]; Table 9", "value": 51}, {"measurement": "binning signal against antibody 1.7", "setting": "GPNMB [2]; Table 9", "value": 17}, {"measurement": "binning signal against antibody 1.8", "setting": "GPNMB [2]; Table 9", "value": 12}, {"measurement": "binning signal against antibody 1.9", "setting": "GPNMB [2]; Table 9", "value": 19}, {"measurement": "binning signal against antibody xV5", "setting": "GPNMB [2]; Table 9", "value": 125}, {"measurement": "binning signal against column antibody 1.5", "setting": "GPNMB [2]; Table 9", "value": "−9"}, {"measurement": "bin", "setting": "GPNMB [2]; Table 9, Cut-off = 90", "value": "VIII"}, {"measurement": "bin", "setting": "GPNMB [2]; three bins of six anti-GPNMB antibodies", "value": "Bin 2"}]}]}
